Test results as given in PMC2662417, “Pxmp2 Is a Channel-Forming Protein in Mammalian Peroxisomal Membrane” (PLoS ONE, 2009).

Assays:
[1] = target: the molecule itself; experiment: SEC + cross-linking; purified native Pxmp2 in detergent; Superdex 200 size-exclusion chromatography; protein eluted from the column treated with Sulfo-EGS, immunoblot with anti-Pxmp2; details in Text S1
[2] = target: the molecule itself; experiment: cross-linking; Genapol X-080-solubilised proteins (about 50 ug) of the PPF of Sf9 cells expressing His-tagged Pxmp2; DSS at 0.1, 0.2, 0.5 and 1.0 mM, 30 min at room temperature; SDS-PAGE, immunoblot with anti-His-tag antibodies

B1: native Pxmp2 purified from mouse liver peroxisomes (natural protein, mouse (endogenous in mouse liver), UniProt P42925 1-194, looked up)
chain: MAPAASRLRVESELGSLPKRALAQYLLLLKLYPVLTKAVSSGILSALGNLLAQTIEKKQRKDSRLLEVSGLLRYLVYGLFVTGPLSHYLYLFMEYSVPPEVPWASVKRLLLDRLFFAPTFLLLFFFVMNLLEGKNVSVFVAKMRSGFWPALQMNWRMWTPLQFININYVPLQFRVLFANMAALFWYAYLASLGK
notes: Pxmp2, peroxisomal membrane protein 2 (22 kDa), mouse; native protein isolated from liver peroxisomes; also called PMP22; purified Pxmp2; source: purified from mouse liver peroxisomes (conventional chromatography: ion-exchange and size-exclusion steps, in detergent)
B1 was tested, and the “stoichiometry N” value [1] was 3.

B2: His-tagged Pxmp2 protein (natural protein, mouse, UniProt P42925 1-194, looked up)
chain: B1 chain
notes: Pxmp2, mouse, recombinant with a His tag (about 27 kDa); also called mouse recombinant Pxmp2
For B2, the “stoichiometry N” value [2] was 3.
